Results reported in the supplement of paper PMC7877785.
± gives the uncertainty stated by the source.

Assay: self-splicing fitness, log relative to wild type (ln ratio); higher = more splicing; Tetrahymena group I intron in knt gene, E. coli kanamycin selection, DiMSum; sequences stand for … in CUCUCU…GGAGGGAAAAGUUAUCAGGCAUGCACCUGGUAGCUAGUCUUUAAACCAAUAGAUUGCAUCGGUUUAAAAGGCAAGACCGUCAAAUUGCGGGAAAGGGGUCAACAGCCGUUCAGUACCAAGUCUCAGGGGAAACUUUGAGAUGGCCUUGCAAAGGGUAUGGUAAUAAGCUGACGGACAUGGUCCUAACCACGCAGCCAAGUCCUAAGUCAACAGAUCUUCUGUUGAUAUGGAUGCAGUUCACAGACUAAAUGUCGGUCGGGGAAGAUGUAUUCUUCUCAUAAGAUAUAGUCGGACCUCUCCUUAAUGGGAGCUAGCGGAUGAAGUGAUGCAACACUGGAGCCGCUGGGAACUAAUUUGUAUGCGAAAGUAUAUUGAUUAGUUUUGGAGUACUCGUGGUCG
Outline: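 The eight P1ex-region nucleotides of an intron in the knt kanamycin-resistance gene on pET-22b(+) were all randomised and the library put into E. coli BL21(DE3). Six replicate transformations were grown overnight at 37°C or 30°C on LB agar with or without 25 μg/mL kanamycin, together with 100 μg/mL carbenicillin, 50 μM IPTG and 0.2% rhamnose. Colonies were pooled and amplicon-sequenced on an Illumina HiSeq 2500. Fitness from DiMSum is the error-weighted combination of wild-type-normalised replicate fold changes, kanamycin over none.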

| Sequence | self-splicing fitness (ln) (30 °C) | self-splicing fitness (ln) (37 °C) |
| --- | --- | --- |
| GACCAGCAAUAUUACGGACC | -2.21 ± 0.17 | -2.38 ± 0.33 |
| GACCAGCAAUAUUACGGAUA | -0.244 ± 0.058 | 0.0596 ± 0.075 |
| GACCAGCAAUAUUACGGCUU | -0.0255 ± 0.055 | -0.293 ± 0.07 |
| GACCAGCAAUAUUACGGGAA | -0.695 ± 0.06 | -0.941 ± 0.067 |
| GACCAGCAAUAUUACGGUAC | -2.05 ± 0.09 | -1.75 ± 0.092 |
| GACCAGCAAUAUUACGGUGU | -0.661 ± 0.055 | -0.365 ± 0.084 |
| GACCAGCAAUAUUACGUCAU | -1.66 ± 0.058 | -0.747 ± 0.062 |
| GACCAGCAAUAUUACGUCCC | -0.756 ± 0.12 | -0.522 ± 0.13 |
| GACCAGCAAUAUUACGUCUG | -2.93 ± 0.23 | -1.74 ± 0.21 |
| GACCAGCAAUAUUACGUGAG | -1.33 ± 0.055 | -1 ± 0.064 |
| GACCAGCAAUAUUACGUGGC | -4.25 ± 0.21 | -2.88 ± 0.16 |
| GACCAGCAAUAUUACGUUAC | -1.65 ± 0.052 | -0.38 ± 0.067 |
| GACCAGCAAUAUUACGUUUA | -0.372 ± 0.051 | -0.0736 ± 0.062 |
| GACCAGCAAUAUUACGUUUC | -0.69 ± 0.065 | -0.568 ± 0.083 |
| GACGAGCAAUAUUACGAAAG | -3.59 ± 0.43 | -1.53 ± 0.37 |
| GACGAGCAAUAUUACGAACU | -1.83 ± 0.11 | -0.278 ± 0.11 |
| GACGAGCAAUAUUACGACUC | -1.36 ± 0.15 | 0.797 ± 0.18 |
| GACGAGCAAUAUUACGACUG | -2.47 ± 0.21 | -0.443 ± 0.25 |
| GACGAGCAAUAUUACGCAAC | -2.11 ± 0.29 | -2.31 ± 0.42 |

| Sequence | self-splicing fitness (ln) (30 °C) | self-splicing fitness (ln) (37 °C) |
| --- | --- | --- |
| GACGAGCAAUAUUACGCCCA | -2.06 ± 0.3 | -2.17 ± 0.28 |
| GACGAGCAAUAUUACGCGAA | -2.91 ± 0.31 | -1.16 ± 0.21 |
| GACGAGCAAUAUUACGCGCA | -1.71 ± 0.23 | -1.3 ± 0.21 |
| GACGAGCAAUAUUACGCGCU | -3.04 ± 0.48 | -2.87 ± 0.31 |
| GACGAGCAAUAUUACGCUGU | -3.17 ± 0.3 | -2.9 ± 0.33 |
| GACGAGCAAUAUUACGGACA | -1.57 ± 0.43 | -0.484 ± 0.14 |
| GACGAGCAAUAUUACGGAUG | -2.45 ± 0.24 | -1.12 ± 0.16 |
| GACGAGCAAUAUUACGGCGG | -2.65 ± 0.33 | -2.42 ± 0.29 |
| GACGAGCAAUAUUACGGCUU | -1.43 ± 0.11 | -0.332 ± 0.14 |
| GACGAGCAAUAUUACGGGCU | -3.61 ± 0.2 | -2.21 ± 0.19 |
| GACGAGCAAUAUUACGGUUA | -1.65 ± 0.12 | -0.972 ± 0.1 |
| GACGAGCAAUAUUACGUUCG | -4.1 ± 0.24 | -2.24 ± 0.23 |
| GACUAGCAAUAUUACGAAAA | -2.41 ± 0.25 | -0.685 ± 0.15 |
| GACUAGCAAUAUUACGAAAC | -1.3 ± 0.12 | -0.114 ± 0.13 |
| GACUAGCAAUAUUACGAAUA | -2.54 ± 0.24 | -0.356 ± 0.21 |
| GACUAGCAAUAUUACGAGAC | -3.56 ± 0.43 | -1.76 ± 0.27 |
| GACUAGCAAUAUUACGAUUC | -0.598 ± 0.065 | -0.35 ± 0.072 |
| GACUAGCAAUAUUACGCAGC | -3.5 ± 0.23 | -2.2 ± 0.31 |
